In US20180155451A1 (published 2018):

T1: FcγRIIb extracellular domain with C-terminal His tag (human, UniProt P31994 43-217)
T1 construct: extracellular domain; also called FcgRIIb; 2b; not shown: His tag at the C terminus
T1 sequence (looked up): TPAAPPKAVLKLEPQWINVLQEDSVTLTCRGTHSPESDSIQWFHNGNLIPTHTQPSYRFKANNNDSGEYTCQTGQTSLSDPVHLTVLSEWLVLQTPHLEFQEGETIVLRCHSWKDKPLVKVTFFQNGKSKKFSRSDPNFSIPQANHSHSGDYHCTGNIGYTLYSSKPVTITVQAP

B1: GpH7-A5/GpH7-B3 variant K334_01G/GpL16-k0 (antibody, human IgG1, kappa)
heavy 1: not shown
heavy 2: not shown
light: DIVMTQSPLSLPVTPGEPASISCQASESLVHSNRNTYLHWYLQKPGQSPQLLIYKVSNRFSGVPDRFSGSGSGTDFTLKISRVEAEDVGVYYCSQNTHVPPTFGQGTKVEIERTVAAPSVFIFPPSDEQLKSGTASVVCLLNNFYPREAKVQWKVDNALQSGNSQESVTEQDSKDSTYSLSSTLTLSKADYEKHKVYACEVTHQGLSSPVTKSFNRGEC
notes: position is EU numbering; also called He Ab
B2: GpH7-A5/GpH7-B3 variant S298_03V/GpL16-k0 (antibody, human IgG1, kappa)
heavy 1: not shown
heavy 2: not shown
light: B1 light
notes: as for B1
B3: GpH7-A5/GpH7-B3 variant K334_09D/GpL16-k0 (antibody, human IgG1, kappa)
heavy 1: not shown
heavy 2: not shown
light: B1 light
notes: as for B1
B4: GpH7-A5/GpH7-B3 variant P329_02A/GpL16-k0 (antibody, human IgG1, kappa)
heavy 1: not shown
heavy 2: not shown
light: B1 light
notes: as for B1
B5: GpH7-A5/GpH7-B3 variant Q295_13S/GpL16-k0 (antibody, human IgG1, kappa)
heavy 1: not shown
heavy 2: not shown
light: B1 light
notes: as for B1
B6: GpH7-A5/GpH7-B3 variant Q295_14T/GpL16-k0 (antibody, human IgG1, kappa)
heavy 1: not shown
heavy 2: not shown
light: B1 light
notes: as for B1
B7: GpH7-A5/GpH7-B3 variant K334_02A/GpL16-k0 (antibody, human IgG1, kappa)
heavy 1: not shown
heavy 2: not shown
light: B1 light
notes: as for B1
B8: GpH7-A5/GpH7-B3 variant K334_04F/GpL16-k0 (antibody, human IgG1, kappa)
heavy 1: not shown
heavy 2: not shown
light: B1 light
notes: as for B1
B9: GpH7-A5/GpH7-B3 variant Q295_16H/GpL16-k0 (antibody, human IgG1, kappa)
heavy 1: not shown
heavy 2: not shown
light: B1 light
notes: as for B1
B10: GpH7-A5/GpH7-B3 variant K334_06M/GpL16-k0 (antibody, human IgG1, kappa)
heavy 1: not shown
heavy 2: not shown
light: B1 light
notes: as for B1
B11: GpH7-A5/GpH7-B3 variant P329_12R/GpL16-k0 (antibody, human IgG1, kappa)
heavy 1: not shown
heavy 2: not shown
light: B1 light
notes: as for B1
B12: GpH7-A5/GpH7-B3 variant P329_11K/GpL16-k0 (antibody, human IgG1, kappa)
heavy 1: not shown
heavy 2: not shown
light: B1 light
notes: as for B1
B13: GpH7-A5/GpH7-B3 variant K334_08L/GpL16-k0 (antibody, human IgG1, kappa)
heavy 1: not shown
heavy 2: not shown
light: B1 light
notes: as for B1
B14: GpH7-A5/GpH7-B3 variant K334_05P/GpL16-k0 (antibody, human IgG1, kappa)
heavy 1: not shown
heavy 2: not shown
light: B1 light
notes: as for B1
B15: GpH7-A5/GpH7-B3 variant Q295_18N/GpL16-k0 (antibody, human IgG1, kappa)
heavy 1: not shown
heavy 2: not shown
light: B1 light
notes: as for B1
B16: GpH7-A5/GpH7-B3 variant K334_07I/GpL16-k0 (antibody, human IgG1, kappa)
heavy 1: not shown
heavy 2: not shown
light: B1 light
notes: as for B1

biological target: T2, FcγRIIIa extracellular domain with C-terminal His tag (human, UniProt P08637 17-208); experiment: SPR (Biacore); ratio of He/Con_3a (FcγRIIIa) to He/Con_2b (FcγRIIb)
T2 construct: extracellular domain; also called FcgRIIIa; 3a; not shown: His tag at the C terminus
T2 sequence (P08637 17-208): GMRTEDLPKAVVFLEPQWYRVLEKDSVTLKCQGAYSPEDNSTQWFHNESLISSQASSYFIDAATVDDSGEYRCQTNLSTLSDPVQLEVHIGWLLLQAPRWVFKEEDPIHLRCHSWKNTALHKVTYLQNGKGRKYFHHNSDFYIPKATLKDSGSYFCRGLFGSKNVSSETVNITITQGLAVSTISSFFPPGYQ
Description: (§1) The heterodimerized antibodies He Abs in which one of the H chains was introduced with an alteration were assayed for their binding activities to each activating FcγR and inhibitory FcγR according to the method described in Example 4. […] The activating FcγRs in FIGS. 26, 27, 28, and 29 are FcγRIa, FcγRIIa (R), FcγRIIa (H), and FcγRIIIa, respectively.
(§2) Analysis of interaction between objective antibody and the FcγR was carried out using Biacore T100 (GE Healthcare). HBS-EP+ (GE Healthcare) was used as the running buffer, and the measurement temperature was set to 25° C. Chips produced by immobilizing the antigen peptide by the amine coupling method to a Series S Sencor Chip CM5 (GE Healthcare), or alternatively, chips produced by allowing preliminarily biotinylated antigen peptides to interact with and immobilize onto a Series S Sensor Chip SA (certified) (GE Healthcare) were used. Antibodies of interest were captured onto an antigen peptide-immobilized chip, and allowed to interact to each FcγR diluted with running buffer. To regenerate and repeatedly use the chip, the antibodies captured on the chip were washed off by reacting 10 mM glycine-HCl, pH 1.5.

Row | He_3a/2b (IIIa/IIb) [ratio] | Binder
1 | 1.31 | B1
2 | 1.69 | B2
3 | 1.69 | B3
4 | 1.39 | B4
5 | 1.51 | B5
6 | 1.72 | B6
7 | 1.37 | B7
8 | 1.33 | B8
9 | 1.22 | B9
10 | 1.33 | B10
11 | 1.52 | B11
12 | 1.76 | B12
13 | 1.35 | B13
14 | 1.27 | B14
15 | 1.26 | B15
16 | 1.27 | B16

biological target: T1, FcγRIIb extracellular domain with …; experiment: SPR (Biacore), antibody captured, FcγR as analyte; He Ab binding / GpH7-A5/GpH7-B3/GpL16-k0 binding x 100
Description: as §1, §2

Row | He/Con_2b (IIb binding) | Binder
17 | 92.5 relative, control = 100 | B1
18 | 64.5 relative, control = 100 | B2
19 | 94.8 relative, control = 100 | B3
20 | 40.5 relative, control = 100 | B4
21 | 56.9 relative, control = 100 | B5
22 | 66.8 relative, control = 100 | B6
23 | 108 relative, control = 100 | B7
24 | 111 relative, control = 100 | B8
25 | 62.7 relative, control = 100 | B9
26 | 109 relative, control = 100 | B10
27 | 17.6 relative, control = 100 | B11
28 | 16.9 relative, control = 100 | B12
29 | 106 relative, control = 100 | B13
30 | 105 relative, control = 100 | B14
31 | 64.9 relative, control = 100 | B15
32 | 119 relative, control = 100 | B16

biological target: T2, FcγRIIIa extracellular domain with …; experiment: as above
Description: as §1, §2

Row | He/Con_3a (IIIa binding) | Binder
33 | 121 relative, control = 100 | B1
34 | 109 relative, control = 100 | B2
35 | 160 relative, control = 100 | B3
36 | 56.4 relative, control = 100 | B4
37 | 86.1 relative, control = 100 | B5
38 | 115 relative, control = 100 | B6
39 | 147 relative, control = 100 | B7
40 | 148 relative, control = 100 | B8
41 | 76.4 relative, control = 100 | B9
42 | 144 relative, control = 100 | B10
43 | 26.7 relative, control = 100 | B11
44 | 29.6 relative, control = 100 | B12
45 | 143 relative, control = 100 | B13
46 | 134 relative, control = 100 | B14
47 | 81.6 relative, control = 100 | B15
48 | 151 relative, control = 100 | B16
